The test system of data set [1] is C[C@H](N)C(=O)O. The data set is described as follows: chiral HPLC of alanine enantiomers, initial rates. The format is biochemical, Clostridioides difficile. To be noted: L-Ala to D-Ala, 50 mM sodium borate pH 8.5, WT preparation partly cleaved at position 271.
Description: (§1) chiral HPLC of alanine enantiomers, initial rates on CdAlr (C. difficile alanine racemase; CdAlrWT)
Data set [2] relates to C[C@@H](N)C(=O)O. The data set is described as follows: chiral HPLC of alanine enantiomers, initial rates. The conditions noted are these: D-Ala to L-Ala, 50 mM sodium borate pH 8.5, WT preparation partly cleaved at position 271. It is filed as biochemical, Clostridioides difficile.
Description: as §1
In data set [3] the target is Clostridium difficile strain 630 alanine racemase, recombinant wild type (Clostridium difficile strain 630). Briefly: SEC-MALS. In general terms: SEC sorts molecules by how far they enter the pores of the column.

For the substance “CdAlr (C. difficile alanine racemase; CdAlrWT) (Clostridioides difficile 630)”, in data set [1], the Km amounted to 17.6 mM and the kcat worked out at 59.3 s⁻¹. Moreover, in data set [2], the Km is 7 mM, the Vmax worked out at 26.7 µmol/min/mg and the kcat turned out to be 19.2 s⁻¹.

As for “Clostridium difficile strain 630 alanine racemase, recombinant wild type (from UniProt A0AC59G415 1-385) (enzyme)”, the stoichiometry N in data set [3] came to 2.

The Km is the concentration of substrate that gives half-maximal velocity. For orientation: kcat means the number of substrate molecules converted per active site and unit of time at saturation. The Vmax is the top rate of the reaction or transport when substrate is in excess. In general, stoichiometry N refers to the number of molecules, sites or subunits per partner or assembly.
